The chains are these.
B1: DB-Fos (fusion protein between the DNA-binding domain of the Gal4 protein and a fragment of the human Fos protein, amino acids 132 to 211) (other, S. cerevisiae;human, UniProt P04386 1-147, looked up)
chain: MKLLSSIEQACDICRLKKLKCSKEKPKCAKCLKNNWECRYSPKTKRSPLTRAHLTEVESRLERLEQLFLLIFPREDLDMILKMDSLQDIKALLTGLFVQDNVNKDAVTDRLASVETDMPLTLRQHRISATSSSEESSNKGQRQLTVSLSPEEEEKRRIRRERNKMAAAKCRNRRRELTDTLQAETDQLEDEKSALQTEIANLLKEKEKLEFILAAHRPACKIPDDLG
notes: Control fusion in the yeast two-hybrid test; also called DE-Fos; pPC76 product
B2: TA (transcription activating domain of Gal4 alone, plasmid pPC86) (other, S. cerevisiae, UniProt P04386 768-881, looked up)
chain: ANFNQSGNIADSSLSFTFTNSSNGPNLITTQTNSQALSQPIASSNVHDNFMNNEITASKIDDGNNSKPLSPGWTDQTAYNAFGITTGMFNTTTMDDVYNYLFDDEDTPPNPKKE
notes: Empty-vector control of the two-hybrid tests
B3: TA-C-fibulin2 (C-terminal part of murine fibulin 2, amino acids 863 to 1195, fused with the transcription activating domain of Gal4) (other, not shown: large carriers)
chain: EGSECVDVNECETGVHRCGEGQLCYNLPGSYRCDCKPGFQRDAFGRTCIDVNECWVSPGRLCQHTCENTPGSYRCSCAAGFLLAADGKHCEDVNECETRRCSQECANIYGSYQCYCRQGYQLAEDGHTCTDIDECAQGAGILCTFRCVNVPGSYQCACPEQGYTMMANGRSCKDLDECALGTHNCSEAETCHNIQGSFRCLRFDCPPNYVRVSQTKCERTTCQDITECQTSPARITHYQLNFQTGLLVPAHIFRIGPAPAFAGDTISLTITKGNEEGYFVTRRLNAYTGVVSLQRSVLEPRDFALDVEMKLWRQGSVTTFLAKMYIFFTTFAP
notes: also called product of plasmid TA-C-FIB2
B4: TA-C-mbp1 (C-terminal part of murine MBP1 fused with the transcription activating domain of Gal4) (other, not shown: large carriers)
chain: CTCPDGYRKIGPECVDIDECRYRYCQHRCVNLPGSFRCQCEPGFQLGPNNRSCVDVNECDMGAPCEQRCFNSYGTFLCRCNQGYELHRDGFSCSDIDECGYSSYLCQYRCVNEPGRFSCHCPQGYQLLATRLCQDIDECETGAHQCSEAQTCVNFHGGYRCVDTNRCVEPYVQVSDNRCLCPASNPLCREQPSSIVHRYMSITSERSVPADVFQIQATSVYPGAYNAFQIRSGNTQGDFYIRQINNVSAMLVLARPVTGPREYVLDLEMVTMNSLMSYRASSVLRLTVFVGAYTF
notes: Library clone from mouse embryo cDNA library pPC67; also called product of plasmid TA-C-MBP1

For experiment [1], the target named is B4. In words: yeast two-hybrid, strain YCM17, URA3 and LacZ reporters. Here is the method:
(§1) After the cotransformation, the various clones obtained were tested for the phenotypes associated with the URA3 and LacZ genes.

Experiment [2] has as its target B3. The experiment is described as above. As to the method: as §1
Experiment [3] deals with T1, DB-C-mbp1 (C-mbp1 fused with the DNA-binding domain of Gal4) (S. cerevisiae; murine, UniProt P04386 1-147).
T1 construct: also called DB-C-mbpl; product of plasmid DB-C-MBP1
In words: yeast two-hybrid, strain PCY2, LacZ reporter.

The target of experiment [4] is T2, DB-C-fibulin2 (C-fibulin2 fused with the DNA-binding domain of Gal4) (S. cerevisiae; murine, UniProt P04386 1-147, limits assumed).
T2 construct: also called product of plasmid DB-C-FIB2
The experiment is described as follows: yeast two-hybrid, strain PCY2, LacZ reporter.

Experiment [5] deals with T3, DB-wt (fragment 73-393 of wild-type human p53 fused with the DNA-binding domain of Gal4) (S. cerevisiae; human, UniProt P04386 1-147; P04637 73-393).
T3 construct: Yeast two-hybrid fusion; also called 73-393 wt in pPC97
In words: yeast two-hybrid, strain YCM17, URA3 and LacZ reporters. Here is the method: as §1

For experiment [6], the target named is B1. The experiment is described as above. As to the method:
as §1

Experiment [7] deals with T4, DB protein (DNA-binding domain of Gal4 alone, plasmid pPC97) (S. cerevisiae, UniProt P04386 1-147).
T4 construct: Empty-vector control of the two-hybrid tests
Described as above. Here is the method:
as §1

Consider B1, for which the binding result in experiment [1] and in experiment [2] was “no binding” throughout.
Turning to B2, the binding result in experiment [3], in experiment [4], in experiment [5], in experiment [6] and in experiment [7] was “no binding” in each case.
In the case of B3, in experiment [5], the binding result was “no binding”.
Same read-out and setting: the entry for B4 is “no binding”.

The values are drawn from patent US20030049699A1 (published 2003).
